Article PMC8636563

Key:
[1] = target: Nse2 ΔLoop1-SIM1 (budding yeast (Saccharomyces cerevisiae)) (UniProt P38632)
[2] = target: Δ4C-Nse2 (ΔSIM2) (budding yeast (Saccharomyces cerevisiae)) (UniProt P38632)
[3] = target: Nse2 1-267 (budding yeast (Saccharomyces cerevisiae)) (UniProt P38632)
[4] = target: Ubc9 A129K/K153R (yeast (Saccharomyces cerevisiae)) (UniProt P50623)

Substance: FL Smt3 (from UniProt Q12306 1-101) (natural protein)
- multiple-turnover SUMO conjugation on cNse4 by Nse2 ΔLoop1-SIM1/Arm-Smc5 against WT-Nse2, 30 °C [1]: < 90 % reduction

Substance: ΔN18 Smt3 (from UniProt Q12306 19-101) (domain or fragment)
- Kcat/KM of single-turnover SUMO conjugation on cp53 (0.5 to 8 µM) by Δ4C-Nse2 (ΔSIM2)/Arm-Smc5 with extra non-conjugatable Smt3, 2 °C [2]: 0.007
- Kcat/KM of single-turnover SUMO conjugation on cp53 (0.5 to 8 µM) by WT Nse2/Arm-Smc5 with extra non-conjugatable Smt3, 2 °C [3]: 0.025
- Kcat of single-turnover discharge of purified Ubc9 K153R~Smt3 K11C/D68R-Alexa488 thioester on cp53 by Nse2/Arm-Smc5, with against without 1.5-fold excess of non-conjugatable SUMOB, 30 °C [4]: 3 fold
